For one molecule, IC50 results are on record in publication PMC9259562 (Scientific Reports, 2022).

Ends that are not written are not given here.

For this experiment, the target named is Stx2a A-subunit (dissociated from recombinant Stx2a) (enterohemorrhagic Escherichia coli …, UniProt P09385 23-319). The experiment can be described thus: AlphaScreen or HTRF. To be noted: both partners purified. A general note: Alpha assays give light when donor and acceptor beads are brought close together.
Chain of Stx2a A-subunit (dissociated from recombinant Stx2a) (P09385 23-319): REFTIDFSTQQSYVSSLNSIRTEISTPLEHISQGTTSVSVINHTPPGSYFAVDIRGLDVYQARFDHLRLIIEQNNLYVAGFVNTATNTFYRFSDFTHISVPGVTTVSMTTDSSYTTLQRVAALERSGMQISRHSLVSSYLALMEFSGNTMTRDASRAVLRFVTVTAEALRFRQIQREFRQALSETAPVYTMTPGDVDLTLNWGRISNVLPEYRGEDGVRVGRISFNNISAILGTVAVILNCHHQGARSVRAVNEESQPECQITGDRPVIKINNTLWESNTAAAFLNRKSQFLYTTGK

RRRRA-NH2 (source: synthetic peptide) [R4A-mono]: the IC50 was 2700 nM.

The term IC50 denotes the concentration at which inhibition is half-maximal.
